Test results as given in US20160251440A1 (Ablynx, published 2016).

Assays:
[1] = target: T1, CXCR4 and CD4 co-expressed on cells (MOLM-13, THP-1, MT-4, PBMC; Jurkat CD4 low) (human, UniProt P61073 1-352; P01730 26-458); assay: FACS, THP-1 cells
T1 construct: whole, on cells; two separate membrane proteins on one cell, not a complex; target of bispecifics; also called CXCR4+/CD4+ cells

[2] = target: T1, CXCR4 and CD4 co-expressed on cells …; assay: cell-based or functional assay
[3] = target: T2, human CXCR4 (on cells, viral lipoparticles or membrane extracts) (human, UniProt P61073 1-352); assay: cell-based or functional assay
T2 sequence (P61073 whole entry): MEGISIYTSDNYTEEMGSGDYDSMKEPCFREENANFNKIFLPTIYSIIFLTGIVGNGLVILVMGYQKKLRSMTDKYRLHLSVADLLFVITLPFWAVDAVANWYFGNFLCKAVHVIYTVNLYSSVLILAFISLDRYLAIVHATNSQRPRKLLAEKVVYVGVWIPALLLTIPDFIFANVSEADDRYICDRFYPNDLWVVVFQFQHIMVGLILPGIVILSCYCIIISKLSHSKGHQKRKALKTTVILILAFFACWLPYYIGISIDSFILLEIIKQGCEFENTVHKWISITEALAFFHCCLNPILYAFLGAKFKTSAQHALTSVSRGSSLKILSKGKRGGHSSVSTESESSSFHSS

[4] = target: T1, CXCR4 and CD4 co-expressed on cells …; assay: cell-based or functional assay; remark: listed apart in the source
[5] = target: T1, CXCR4 and CD4 co-expressed on cells …; assay: cell-based or functional assay; remark: listed apart in the source
[6] = target: T1, CXCR4 and CD4 co-expressed on cells …; assay: cell-based or functional assay; remark: listed apart in the source
[7] = target: T1, CXCR4 and CD4 co-expressed on cells …; assay: FACS, MOLM-13 cells (CXCR4+/CD4+)
[8] = target: T1, CXCR4 and CD4 co-expressed on cells …; assay: FACS, Jurkat E6-1 cells (CXCR4+/CD4 low)
[9] = target: T3, human IL12Rβ1, cell-expressed (human, UniProt P42701 24-662); assay: cell-based or functional assay
[10] = target: T3, human IL12Rβ1, cell-expressed; assay: cell-based or functional assay; remark: listed apart in the source
[11] = target: T3, human IL12Rβ1, cell-expressed; assay: FACS, activated human T cells
[12] = target: T4, human IL12Rβ1 extracellular domain Fc-fusion (human, UniProt P42701 24-545); assay: SPR Biacore T100, captured IL12Rβ1-Fc
T4 construct: extracellular domain; bought; also called IL12Rβ1-Fc; hIL-12Rβ1-Fc; not shown: Fc part, captured by anti-hIgG

[13] = target: T4, human IL12Rβ1 extracellular domain …; assay: competition ELISA, coated IL-12 + IL12Rβ1-Fc
[14] = target: T4, human IL12Rβ1 extracellular domain …; assay: competition ELISA, coated IL-23 + IL12Rβ1-Fc
[15] = target: T4, human IL12Rβ1 extracellular domain …; assay: competition ELISA, coated IL-12 + 2 nM IL12Rβ1-Fc
[16] = target: T4, human IL12Rβ1 extracellular domain …; assay: competition ELISA, coated IL-23 + 2 nM IL12Rβ1-Fc
[17] = target: T5, human CD4, cell-expressed (human, UniProt P01730 26-458); assay: flow cytometry on MOLM-13 cells (CD4, no IL12R or IL23R), lower left panel
T5 construct: whole, on cells

[18] = target: T6, human IL-3Rα (CD123), cell-expressed (human, UniProt P26951 19-378); assay: FACS, THP-1 cells
T6 construct: whole, on cells; also called IL-3Ra; Hek-IL-3Rα

[19] = target: T6, human IL-3Rα (CD123), cell-expressed; assay: FACS, MOLM-13 cells
[20] = target: T6, human IL-3Rα (CD123), cell-expressed; assay: FACS, HEK293T-IL-3Rα cells
[21] = target: T7, recombinant IL-3Rα ectodomain (human, UniProt P26951 19-305); assay: SPR ProteOn, immobilised IL-3Rα ectodomain
T7 construct: extracellular domain; also called recombinant IL-3Ra; biotinylated-IL-3Rα ectodomain
T7 sequence (looked up): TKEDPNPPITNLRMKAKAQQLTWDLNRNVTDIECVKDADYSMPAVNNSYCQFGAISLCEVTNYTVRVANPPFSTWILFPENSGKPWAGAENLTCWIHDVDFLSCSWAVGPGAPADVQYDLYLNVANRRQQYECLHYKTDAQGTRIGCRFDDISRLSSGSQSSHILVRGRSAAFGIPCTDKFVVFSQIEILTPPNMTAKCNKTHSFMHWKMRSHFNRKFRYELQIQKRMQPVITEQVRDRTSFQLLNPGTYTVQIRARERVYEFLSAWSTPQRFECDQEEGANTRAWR

[22] = target: T7, recombinant IL-3Rα ectodomain; assay: competition ELISA, coated mAb 7G3 + biotinylated IL-3Rα ectodomain
[23] = target: T7, recombinant IL-3Rα ectodomain; assay: ELISA on recombinant IL-3Ra ectodomain (panel 'IL-3Ra ELISA', lower left)
[24] = target: T6, human IL-3Rα (CD123), cell-expressed; assay: flow cytometry on Molm-13 cells; EC50(M) printed in the legend box beside the curves
[25] = target: T2, human CXCR4 (on cells, viral …); assay: flow cytometry at one concentration on Jurkat E6-1 cells (CXCR4+/CD123-), anti-FLAG detection
[26] = target: T7, recombinant IL-3Rα ectodomain; assay: ELISA on recombinant IL-3Ra ectodomain (lower right panel)
[27] = target: T2, human CXCR4 (on cells, viral …); assay: ELISA on coated CXCR4 viral lipoparticles (both upper panels)

T1 sequence (P61073 whole entry, chain 1 of 2, other chains not shown): as the sequence (P61073 whole entry) above

B1: 281F12-35GS-03F11 (bispecific antibody)
chain: EVQLVESGGGLVQAGDSLRLSCAASGRAFSRYAMGWFRQAPGKEREFVAAIGWGPSKTNYADSVKGRFTISRDNAKNTVYLQMNTLKPEDTAVYSCAAKFVNTDSTWSRSEMYTYWGQGTQVTVSSGGGGSGGGGSGGGGSGGGGSGGGGSGGGGSGGGGSEVQLVESGGGSVQPGGSLTLSCGTSGRTFNVMGWFRQAPGKEREFVAAVRWSSTGIYYTQYADSVKSRFTISRDNAKNTVYLEMNSLKPEDTAVYYCAADTYNSNPARWDGYDFRGQGTQVTVSS
notes: also called CXCR4#2-35GS-CD4#8; CXCR4#2-CD4#8
EC50 [1]: 0.67 nM | enhancement vs monovalent CD4#8, HIV-1 BaL, PBMC [2]: ~200 fold | Fold increase vs CXCR4#2, Jurkat E6-1 [3]: 0.8 fold | Fold increase vs CXCR4#2, MOLM-13 [3]: 146 fold | IC50, SDF-1 chemotaxis, Jurkat E6-1 [3]: 110 nM | IC50, SDF-1 chemotaxis, MOLM-13 [3]: 0.59 nM | IC50, HIV-1 BaL (R5), PBMC [4]: 2.46 nM | IC50, HIV-1 NL4.3 (X4), MT-4 [4]: 0.24 nM | IC50, HIV-1 NL4.3 (X4), PBMC [4]: 0.37 nM | IC50, HIV-1 NL4.3 (X4), U87 [4]: 2.67 nM | IC50, HIV-1 NL4.3 wt, MT-4 [5]: 0.187 nM | IC50, NL4.3 2G12 res., MT-4 [5]: 0.11 nM | IC50, NL4.3 AMD-3100 res., MT-4 [5]: 1.13 nM | IC50, NL4.3 CD4#8 res., MT-4 [5]: 0.31 nM | IC50, NL4.3 CXCL-12res., MT-4 [5]: 0.433 nM | IC50, NL4.3 CXCR4#2 res, MT-4 [5]: 1.4 nM | IC50, HIV-1 HE, MT-4 [6]: 0.0906 nM | IC50, HIV-1 NL4.3, MT-4 [6]: 0.187 nM | IC50, HIV-2 ROD, MT-4 [6]: 0.3 nM | EC50 [7]: 1.1 nM | EC50 [8]: 11 nM

B2: IL12Rb1#30: 148C09 (VHH)
VHH: EVQLVESGGGLVQTGGSLRLSCAASGRTPRLVAMGWFRQTPGKEREFVGEIILSKGFTYYADSVKGRFTISRVNAKNTITMYLQMNSLKSEDTAVYYCAGRQNWSGSPARTNEYEYWGQGTLVTVSS
notes: also called IL12Rβ1#30; LG148C09
IC50, IL-12 induced IFNγ release, PBMC D840 [9]: 17 nM | IC50, IL-12 induced IFNγ release, T cells D839 [9]: 140 nM | IC50, IL-17 release, PBMC D840 [10]: 35.5 nM | EC50 [11]: 1.3 nM | Kd [12]: 3.3 nM | koff [12]: 0.0015 s⁻¹ | kon [12]: 450000 M⁻¹ s⁻¹ | IC50 [13]: 3.7 nM | IC50 [14]: 1.5 nM | IC50 [15]: 3.7 nM | IC50 [16]: 1.5 nM | binding result [17]: no binding (tested: 1E-6 M)

B3: 55A01 (VHH)
VHH: EVQLVESGGGSVQAGGSLRLSCTTSGRALNMYVMGWFRQAPGNEREFVAATSSSGGSTSYPDSVKGRFTISRDNAKNTVYLQMNSLKPEDTAAYRCAASPYVSTPTMNILEEYRYWGLGTQVTVSS
notes: also called CD123#2; A0110055A01
EC50 [18]: 11 nM | EC50 [19]: 8.2 nM | EC50 [20]: 1.1 nM | Kd [21]: 17.1 nM | koff [21]: 0.0014 s⁻¹ | kon [21]: 84000 M⁻¹ s⁻¹ | IC50 [22]: 40 nM | EC50 (read off the curve) [23]: ~1 nM | EC50 [24]: 13 nM | binding result [25]: no binding (tested: 4.6 nM)

B4: 57A07 (VHH)
VHH: EVQLVESGGGLVQAGGSLRLSCAASGSIFSGNVMGWYRRQAPGKEREWVAAIASGGSIYYRDSVKGRFTISRDNAKNTVYLQMNSLKPEDTAVYYCNSHPPTLPYWGLGTQVTVSS
notes: also called CD123#1; A0110057A07
EC50 [18]: 1.3 nM | EC50 [19]: 0.66 nM | EC50 [20]: 0.24 nM | Kd [21]: 0.783 nM | koff [21]: 0.00081 s⁻¹ | kon [21]: 1e+06 M⁻¹ s⁻¹ | IC50 [22]: 1.2 nM | EC50 (read off the curve) [26]: ~0.5 nM | binding result [27]: no binding (tested: about 1E-5 M) | EC50 [24]: 0.67 nM
